According to paper PMC11253611, “The chaperone PrsA2 regulates the secretion, stability, and folding of listeriolysin O during Listeria monocytogenes infection” (mBio, 2024):
Changes are numbered by the printed parent chain. Names and notes keep the numbering of the source.

How the values were obtained:
[1] = target: recombinant listeriolysin O (without the signal sequence, 25-529) (Listeria monocytogenes 10403S) (UniProt P13128); test: ITC; pH 6.5, 25°C; PrsA2 (19.0 µM) or mutant titrated into LLO (0.4 µM); 20 mM MES, 100 mM NaCl, 1 mM β-mercaptoethanol, 10% glycerol; independent binding model; n counts PrsA2 monomers per LLO
[2] = target: recombinant listeriolysin O (without the signal sequence, 25-529) (Listeria monocytogenes 10403S) (UniProt P13128); test: MST; pH 6.5, 25°C; NHS-dye-labelled PrsA2 or mutant (20-150 nM) with serially diluted unlabelled LLO; 20 mM MES, 100 mM NaCl, 1 mM β-mercaptoethanol, 10% glycerol, 0.05% Tween 20; 1:1 model in PALMIST
[3] = target: T1, recombinant listeriolysin O (without the signal sequence, 25-529) (Listeria monocytogenes 10403S, UniProt P13128 25-529); test: ITC; pH 5.5, 25°C; PrsA2 titrated into LLO; 20 mM MES, 100 mM NaCl, 1 mM β-mercaptoethanol, 10% glycerol; independent binding model; n counts PrsA2 monomers per LLO; details: both partners purified
T1 construct: also called LLO; source: E. coli BL21 (DE3*), purified (nickel-NTA, dialysis)

[4] = target: T1, recombinant listeriolysin O (without …); test: ITC; pH 5.5, 37°C; PrsA2 titrated into LLO; 20 mM MES, 100 mM NaCl, 1 mM β-mercaptoethanol, 10% glycerol; independent binding model; n counts PrsA2 monomers per LLO; details: both partners purified
[5] = target: T1, recombinant listeriolysin O (without …); test: ITC; pH 6.5, 37°C; PrsA2 titrated into LLO; 20 mM MES, 100 mM NaCl, 1 mM β-mercaptoethanol, 10% glycerol; independent binding model; n counts PrsA2 monomers per LLO; details: both partners purified
[6] = target: T1, recombinant listeriolysin O (without …); test: ITC; pH 7.4, 25°C; PrsA2 titrated into LLO; 20 mM MES, 100 mM NaCl, 1 mM β-mercaptoethanol, 10% glycerol; independent binding model; n counts PrsA2 monomers per LLO; details: both partners purified
[7] = target: the molecule itself; test: cross-linking; 500 ng His-tagged protein with 10 µM BS3 for 1 hour at room temperature in 20 mM HEPES, 200 mM NaCl, pH 6.5; heated at 85°C, SDS-PAGE, anti-His Western blot
[8] = target: T1, recombinant listeriolysin O (without …); test: ITC; pH 6.5, 25°C; PrsA2 (19.0 µM) or mutant titrated into LLO (0.4 µM); 20 mM MES, 100 mM NaCl, 1 mM β-mercaptoethanol, 10% glycerol; independent binding model; n counts PrsA2 monomers per LLO; details: both partners purified
[9] = target: T1, recombinant listeriolysin O (without …); test: MST; pH 5.5, 25°C; NHS-dye-labelled PrsA2 (20-150 nM) with serially diluted unlabelled LLO; 20 mM MES, 100 mM NaCl, 1 mM β-mercaptoethanol, 10% glycerol, 0.05% Tween 20; 1:1 model in PALMIST; details: both partners purified
[10] = target: T1, recombinant listeriolysin O (without …); test: MST; pH 5.5, 37°C; NHS-dye-labelled PrsA2 (20-150 nM) with serially diluted unlabelled LLO; 20 mM MES, 100 mM NaCl, 1 mM β-mercaptoethanol, 10% glycerol, 0.05% Tween 20; 1:1 model in PALMIST; details: both partners purified
[11] = target: T1, recombinant listeriolysin O (without …); test: MST; pH 6.5, 37°C; NHS-dye-labelled PrsA2 (20-150 nM) with serially diluted unlabelled LLO; 20 mM MES, 100 mM NaCl, 1 mM β-mercaptoethanol, 10% glycerol, 0.05% Tween 20; 1:1 model in PALMIST; details: both partners purified
[12] = target: T1, recombinant listeriolysin O (without …); test: MST; pH 7.4, 25°C; NHS-dye-labelled PrsA2 (20-150 nM) with serially diluted unlabelled LLO; 20 mM MES, 100 mM NaCl, 1 mM β-mercaptoethanol, 10% glycerol, 0.05% Tween 20; 1:1 model in PALMIST; details: both partners purified
[13] = target: T1, recombinant listeriolysin O (without …); test: MST; pH 7.4, 37°C; NHS-dye-labelled PrsA2 (20-150 nM) with serially diluted unlabelled LLO; 20 mM MES, 100 mM NaCl, 1 mM β-mercaptoethanol, 10% glycerol, 0.05% Tween 20; 1:1 model in PALMIST; details: both partners purified
[14] = target: T1, recombinant listeriolysin O (without …); test: ITC; pH 6.5, 25°C; PrsA2 (19.0 µM) or mutant titrated into LLO (0.4 µM); 20 mM MES, 100 mM NaCl, 1 mM β-mercaptoethanol, 10% glycerol; independent binding model; n counts PrsA2 monomers per LLO; details: both partners purified; remark: listed apart in the source
[15] = target: T1, recombinant listeriolysin O (without …); test: MST; pH 6.5, 25°C; NHS-dye-labelled PrsA2 or mutant (20-150 nM) with serially diluted unlabelled LLO; 20 mM MES, 100 mM NaCl, 1 mM β-mercaptoethanol, 10% glycerol, 0.05% Tween 20; 1:1 model in PALMIST; details: both partners purified
[16] = target: T1, recombinant listeriolysin O (without …); test: ITC; pH 7.4, 37°C; PrsA2 titrated into LLO at low LLO concentrations to mitigate heats of self-aggregation; 20 mM MES, 100 mM NaCl, 1 mM β-mercaptoethanol, 10% glycerol; independent binding model; n counts PrsA2 monomers per LLO; details: both partners purified
[17] = target: T1, recombinant listeriolysin O (without …); test: cell-based or functional assay
[18] = target: T1, recombinant listeriolysin O (without …); test: ITC; pH 6.5, 25°C; PrsA2 (19.0 µM) or mutant titrated into LLO (0.4 µM); 20 mM MES, 100 mM NaCl, 1 mM β-mercaptoethanol, 10% glycerol; independent binding model; n counts PrsA2 monomers per LLO; details: both partners purified; remark: listed apart in the source
[19] = target: T1, recombinant listeriolysin O (without …); test: MST; pH 6.5, 25°C; NHS-dye-labelled PrsA2 or mutant (20-150 nM) with serially diluted unlabelled LLO; 20 mM MES, 100 mM NaCl, 1 mM β-mercaptoethanol, 10% glycerol, 0.05% Tween 20; 1:1 model in PALMIST; details: both partners purified; remark: listed apart in the source
[20] = target: T1, recombinant listeriolysin O (without …); test: as above; details: both partners purified; remark: listed apart in the source

Molecule: PrsA2 N+C (foldase domain only, lacks the entire PPIase domain) (from UniProt Q8Y557 21-293) (domain or fragment)
- Kd [1]: 357 nM
- dH [1]: -69.3 kJ/mol
- stoichiometry N [1]: 2.08
- Kd [2]: 330 nM

B1: recombinant PrsA2 (wild type, without the signal sequence) (natural protein)
chain: CGGGGDVVKTDSGDVTKDELYDAMKDKYGSEFVQQLTFEKILGDKYKVSDEDVDKKFNEYKSQYGDQFSAVLTQSGLTEKSFKSQLKYNLLVQKATEANTDTSDKTLKKYYETWQPDITVSHILVADENKAKEVEQKLKDGEKFADLAKEYSTDTATKDNGGQLAPFGPGKMDPAFEKAAYALKNKGDISAPVKTQYGYHIIQMDKPATKTTFEKDKKAVKASYLESQLTTENMQKTLKKEYKDANVKVEDKDLKDAFKDFDGSSSSDSDSSK
notes: also called Lm PrsA2; pQE60-prsA2; source: E. coli BL21 (DE3*), purified (nickel-NTA, dialysis)
- Kd [3]: 201 nM
- dH [3]: -33.2 kJ/mol
- stoichiometry N [3]: 1.96
- Kd [4]: 330 nM
- dH [4]: -23 kJ/mol
- stoichiometry N [4]: 1.95
- Kd [5]: 88.3 nM
- dH [5]: -129 kJ/mol
- stoichiometry N [5]: 1.73
- Kd [6]: 46.1 nM
- dH [6]: -91 kJ/mol
- stoichiometry N [6]: 2.11
- stoichiometry N [7]: 2
- Ka [8]: 2.65e+07 M⁻¹
- Kd [8]: 37.8 nM
- Kd [9]: 150 nM
- Kd [10]: 190 nM
- Kd [11]: 28 nM
- Kd [12]: 23 nM
- Kd [13]: 39 nM
- Kd [14]: 37.7 nM
- dH [14]: -440 kJ/mol
- stoichiometry N [14]: 2.21
- Kd [15]: 12 nM
- Kd [16]: 67.2 nM
- dH [16]: -53.6 kJ/mol
- stoichiometry N [16]: 2.01

B2: PrsA2 No dimer mutant/PrsA2^M (V28A/L40A/Y41A/M44A) (natural protein, Listeria monocytogenes, UniProt Q8Y557 21-293, looked up)
chain: B1 chain with V8A, L20A, Y21A, M24A
modifications: Red NHS dye (NanoTemper 2nd Generation) on primary amines, in the MST experiments only
notes: Same limits and tag as m1; also called PrsA2 monomer; PrsA2 dimer mutant; source: E. coli BL21 (DE3*), purified (nickel-NTA, dialysis)
- LLO hemolytic activity at pH 5.5 and 30°C after 1 hour at pH 7.4 and 37°C with the chaperone mutant at a 30:1 molar ratio (protection assay), against wild-type PrsA2 or PrsA2 N+C [17]: ~2 fold
- Kd [18]: 206 nM
- dH [18]: -89.3 kJ/mol
- stoichiometry N [18]: 2.06
- Kd [19]: ~330 nM
- Kd [20]: 190 nM

B3: PrsA2 V91T (natural protein, Listeria monocytogenes, UniProt Q8Y557 21-293, looked up)
chain: B1 chain with V71T
modifications: Red NHS dye (NanoTemper 2nd Generation) on primary amines, in the MST experiments only
notes: Same limits and tag as m1; also called foldase domain mutant; source: E. coli BL21 (DE3*), purified (nickel-NTA, dialysis)
- LLO hemolytic activity at pH 5.5 and 30°C after 1 hour at pH 7.4 and 37°C with the chaperone mutant at a 30:1 molar ratio (protection assay), against wild-type PrsA2 or PrsA2 N+C [17]: ~2 fold
- Kd [18]: 9.64 nM
- dH [18]: -17.6 kJ/mol
- stoichiometry N [18]: 2.11
- Kd [20]: 2.8 nM
